In US20180327512A1:

Assays:
[1] = molecular target: human polyclonal IgG (Gammanorm) (human); experiment: SPR (Biacore), ligand on CM5 chip, 1 mg/ml human polyclonal IgG; remaining IgG binding signal after 96-100 10-min cycles in 0.5 M NaOH
[2] = molecular target: human polyclonal IgG (Gammanorm) (human); experiment: SPR (Biacore), remaining IgG binding capacity after 96-100 cycles in 0.5 M NaOH, ratio to Zvar1 reference
[3] = molecular target: human polyclonal IgG (Gammanorm) (human); experiment: column Qb10 retention after six 4 h cycles in 0.5 M NaOH, ratio to Zvar4 reference
[4] = molecular target: human polyclonal IgG (Gammanorm) (human); experiment: column Qb10 after six 4 h cycles in 0.5 M NaOH relative to initial, ligand on agarose beads (ligand content 9.7 mg/ml)
[5] = molecular target: human polyclonal IgG (Gammanorm) (human); experiment: column dynamic binding capacity at 10% breakthrough, ligand on agarose beads (ligand content 9.7 mg/ml), Gammanorm 2 mg/ml, 6 min residence time
[6] = molecular target: human polyclonal IgG (Gammanorm) (human); experiment: column Qb10 after six 4 h cycles in 0.5 M NaOH, ligand on agarose beads (ligand content 9.7 mg/ml)
[7] = molecular target: human polyclonal IgG (Gammanorm) (human); experiment: column Qb10 after six 4 h cycles in 0.5 M NaOH relative to initial, ligand on agarose beads (ligand content 10.8 mg/ml)
[8] = molecular target: human polyclonal IgG (Gammanorm) (human); experiment: column dynamic binding capacity at 10% breakthrough, ligand on agarose beads (ligand content 10.8 mg/ml), Gammanorm 2 mg/ml, 6 min residence time
[9] = molecular target: human polyclonal IgG (Gammanorm) (human); experiment: column Qb10 after six 4 h cycles in 0.5 M NaOH, ligand on agarose beads (ligand content 10.8 mg/ml)

Substance	Capacity after 96-100 cycles [1] [%]	Capacity relative to reference [2]	Capacity retention relative to ref. after 4 h cycles [3]	Remaining IgG capacity after six 4 h cycles (%) [4] [%]	Initial IgG capacity Qb10 [5] [mg/mL]	Remaining IgG capacity after six 4 h cycles [6] [mg/mL]	Remaining IgG capacity after six 4 h cycles (%) [7] [%]	Initial IgG capacity Qb10 [8] [mg/mL]	Remaining IgG capacity after six 4 h cycles [9] [mg/mL]
Zvar(H18K, S33K, D37E, A42R, N43A, L44I, K50R, L51Y)1 (designed binder)	48	1.04	–	–	–	–	–	–	–
Zvar(N11K, H18K, S33K, D37E, A42R, N43A, L44I, K50R, L51Y)4 (designed binder)	–	–	1.42	92	56.3	52	–	–	–
Zvar(Q9A, N11K, H18K, D37E, A42R)4 (designed binder)	–	–	1.21	–	–	–	92	56.9	52.5
